Test results published in paper PMC4838342.
pKd: −log10 of the molar value.

What was measured:
mCherry-LacI-H3 = mCherry-LacI-H3 (UniProt P68431); experiment: F2H (live cell imaging, recruitment to LacO array); details: n=20; parent: est. 1.7; read off a plot
MBP H3 116–135 (human) = experiment: ITC; MicroCal iTC200; sNASP (180, 150, 100 μM) in the syringe injected into MBP H3 116–135 (30, 15, 10 μM) in the cell; 20 mM Hepes-KOH pH 7.5, 200 mM sodium chloride; one-site model

Substance | other: enrichment ratio (mCherry-LacI-H3) | pKd (MBP H3 116–135 (human)) | stoichiometry N (MBP H3 116–135 (human))
EGFP-sNASP (from UniProt P49321-2) E211A; E215A; E217A | 1.2 | – | –
EGFP-sNASP (from UniProt P49321-2) E246A; Y249S; L253S | 1.1 | – | –
sNASP (from UniProt P49321-2 1-449) (natural protein; other documents disagree on this pair) | – | 7.17 to 7.33 | 1
